# Source: US20220334106, “CONJUGATE” (DENSO CORPORATION, published 2022)
# T1: alpha-amylase (UniProt P0DUB6 P0DUB6:16-511)
# T1 sequence: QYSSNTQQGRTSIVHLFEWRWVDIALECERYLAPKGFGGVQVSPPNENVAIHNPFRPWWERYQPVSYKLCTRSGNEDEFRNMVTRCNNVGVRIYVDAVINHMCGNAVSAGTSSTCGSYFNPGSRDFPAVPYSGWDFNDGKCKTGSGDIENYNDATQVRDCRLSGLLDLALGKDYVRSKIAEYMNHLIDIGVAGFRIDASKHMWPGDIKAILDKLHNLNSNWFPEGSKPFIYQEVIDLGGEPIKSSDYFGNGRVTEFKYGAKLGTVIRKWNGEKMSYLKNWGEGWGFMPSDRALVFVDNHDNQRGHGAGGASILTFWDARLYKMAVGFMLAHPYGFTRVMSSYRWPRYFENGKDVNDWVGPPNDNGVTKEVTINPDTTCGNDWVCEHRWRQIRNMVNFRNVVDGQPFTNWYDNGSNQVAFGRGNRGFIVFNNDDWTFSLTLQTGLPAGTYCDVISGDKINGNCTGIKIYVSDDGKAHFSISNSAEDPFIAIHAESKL
# B1: DNA aptamer to SARS-CoV-2 spike RBD, alkaline phosphatase conjugate (ssDNA)
# DNA: CAGCACCGACCTTGTGCTTTGGGAGTGCTGGTCCAAGGGCGTTAATGGACA
# modifications: 5' biotin via C6 spacer
# Biological target: T1, alpha-amylase
# Test: ELONA
# Conditions: tags: Lee Biosolutions 120-17
binder,measurement,value
B1,binding result,no binding
